Experimental findings from PMC3430658, “Investigation of Real-Time Photorepair Activity on DNA via Surface Plasmon Resonance” are described below.

Data set [1] concerns the target T1, CRY-DASH (VcCry1, MBP fusion) (Vibrio cholerae, UniProt Q9KR33 1-461).
T1 sequence: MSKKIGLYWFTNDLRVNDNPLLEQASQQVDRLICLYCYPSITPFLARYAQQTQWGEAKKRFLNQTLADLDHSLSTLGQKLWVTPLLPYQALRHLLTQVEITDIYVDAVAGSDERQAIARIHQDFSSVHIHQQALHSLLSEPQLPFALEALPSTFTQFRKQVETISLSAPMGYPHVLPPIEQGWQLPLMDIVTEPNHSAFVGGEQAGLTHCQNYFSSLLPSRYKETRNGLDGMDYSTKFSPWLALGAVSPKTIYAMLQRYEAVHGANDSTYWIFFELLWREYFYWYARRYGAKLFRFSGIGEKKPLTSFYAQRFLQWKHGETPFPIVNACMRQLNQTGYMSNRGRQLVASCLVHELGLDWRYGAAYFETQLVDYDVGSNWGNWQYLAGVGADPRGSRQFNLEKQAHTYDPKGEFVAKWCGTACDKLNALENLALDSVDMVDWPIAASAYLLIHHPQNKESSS
Put plainly: SPR; photoactivated, DTT; repair during injection; SPR (SensiQ Discovery, neutravidin BioCap chip), 1X PBS (10 mM phosphate, 2.7 mM KCl, 137 mM NaCl) pH 7.4, 0.005% Tween 20, 25 C, 50 uL/min; protein in PBS with 1 mM DTT. To be noted: protein: recombinant; tags: MBP (pMal-c2x, pUNC2002); label: 5'-biotin. (SPR reads the build-up and loss of mass on a sensor chip optically.)

Data set [2] addresses T2, VcPHR (CPD photolyase, MBP fusion) (Vibrio cholerae, UniProt Q9KNA8 1-469).
T2 sequence: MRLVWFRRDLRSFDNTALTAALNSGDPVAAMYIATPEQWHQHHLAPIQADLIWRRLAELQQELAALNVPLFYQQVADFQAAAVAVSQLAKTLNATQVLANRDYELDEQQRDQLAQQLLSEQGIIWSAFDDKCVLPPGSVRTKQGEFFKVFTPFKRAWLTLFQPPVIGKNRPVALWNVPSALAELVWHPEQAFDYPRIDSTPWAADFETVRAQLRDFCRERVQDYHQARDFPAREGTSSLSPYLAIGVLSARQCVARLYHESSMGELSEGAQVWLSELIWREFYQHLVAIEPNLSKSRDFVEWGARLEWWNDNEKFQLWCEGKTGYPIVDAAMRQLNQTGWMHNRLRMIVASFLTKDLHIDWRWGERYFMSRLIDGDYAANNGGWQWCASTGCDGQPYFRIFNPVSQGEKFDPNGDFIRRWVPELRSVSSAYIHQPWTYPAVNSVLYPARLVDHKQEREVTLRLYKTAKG
The description is as above. To be noted: protein: recombinant, tags: MBP (pMal-c2x, pUNC2001).

Data set [3] addresses T1, CRY-DASH (VcCry1, MBP fusion). The data set is described as follows: SPR; photoactivated, DTT; described as nonspecific; SPR (SensiQ Discovery, neutravidin BioCap chip), 1X PBS (10 mM phosphate, 2.7 mM KCl, 137 mM NaCl) pH 7.4, 0.005% Tween 20, 25 C, 50 uL/min; protein in PBS with 1 mM DTT. To be noted: protein: recombinant; tags: MBP (pMal-c2x, pUNC2002); label: 5'-biotin on strand 1; blunt.

Data set [4] addresses T2, VcPHR (CPD photolyase, MBP fusion). The description is as above. To be noted: protein: recombinant, tags: MBP (pMal-c2x, pUNC2001).
In data set [5] the target is T1, CRY-DASH (VcCry1, MBP fusion). Put plainly: SPR; photoactivated, DTT; nonspecific, similar to BSA; SPR (SensiQ Discovery, neutravidin BioCap chip), 1X PBS (10 mM phosphate, 2.7 mM KCl, 137 mM NaCl) pH 7.4, 0.005% Tween 20, 25 C, 50 uL/min; protein in PBS with 1 mM DTT. To be noted: protein: recombinant; tags: MBP (pMal-c2x, pUNC2002); label: 5'-biotin.
The target is the same in data set [6]. The data set is described as follows: SPR; photoactivated, DTT; no significant binding, similar to BSA; SPR (SensiQ Discovery, neutravidin BioCap chip), 1X PBS (10 mM phosphate, 2.7 mM KCl, 137 mM NaCl) pH 7.4, 0.005% Tween 20, 25 C, 50 uL/min; protein in PBS with 1 mM DTT. To be noted: protein: recombinant; tags: MBP (pMal-c2x, pUNC2002); label: 5'-biotin on strand 1; blunt.

Setting [7] is: label: 5'-biotin on strand 1, blunt.

One may read the Kd as a measure of binding affinity in units of concentration.

With GACGCAGATCTACGAATTCGCTTAATTCGCTGCACCGGATCCCGCTAG (ssDNA, UV 254 nm irradiated, mostly CPD (mixed lesions, positions not defined)) [UV-damaged ssDNA 48-mer], the dissociation constant (Kd) in data set [1] was determined as 0.0637 µM; in data set [2] (label: 5'-biotin) it was 0.0012 µM.

B1: undamaged dsDNA 48-mer (dsDNA)
DNA 1: GACGCAGATCTACGAATTCGCTTAATTCGCTGCACCGGATCCCGCTAG
DNA 2: CTAGCGGGATCCGGTGCAGCGAATTAAGCGAATTCGTAGATCTGCGTC
As to B1, the Kd came to 52.1 µM in data set [3] and 18.7 µM in data set [4] (setting [7]).

As for GACGCAGATCTACGAATTCGCTTAATTCGCTGCACCGGATCCCGCTAG (ssDNA) [undamaged ssDNA 48-mer], the equilibrium dissociation constant (Kd) in data set [5] came out at 117 µM; in data set [4] (label: 5'-biotin), 14 µM.

B2: UV-damaged dsDNA 48-mer (dsDNA)
DNA 1: GACGCAGATCTACGAATTCGCTTAATTCGCTGCACCGGATCCCGCTAG
DNA 2: CTAGCGGGATCCGGTGCAGCGAATTAAGCGAATTCGTAGATCTGCGTC
modifications: strand 1 UV 254 nm irradiated, mostly CPD (mixed lesions, positions not defined); complement undamaged
With B2, the Kd in data set [2] (setting [7]) was determined as 0.022 µM; in data set [6] it was 17.8 µM.
